Laboratory results reported in patent US20180291110A1 (Hoffmann-La Roche, published 2018).

molecular target: T1, human transferrin receptor (recombinant, for surface plasmon resonance) (human, UniProt P02786 89-760); assay: SPR 25C
T1 construct: also called huTfR; human transferrin receptor-biotinylated
T1 sequence (P02786 89-760 limits assumed): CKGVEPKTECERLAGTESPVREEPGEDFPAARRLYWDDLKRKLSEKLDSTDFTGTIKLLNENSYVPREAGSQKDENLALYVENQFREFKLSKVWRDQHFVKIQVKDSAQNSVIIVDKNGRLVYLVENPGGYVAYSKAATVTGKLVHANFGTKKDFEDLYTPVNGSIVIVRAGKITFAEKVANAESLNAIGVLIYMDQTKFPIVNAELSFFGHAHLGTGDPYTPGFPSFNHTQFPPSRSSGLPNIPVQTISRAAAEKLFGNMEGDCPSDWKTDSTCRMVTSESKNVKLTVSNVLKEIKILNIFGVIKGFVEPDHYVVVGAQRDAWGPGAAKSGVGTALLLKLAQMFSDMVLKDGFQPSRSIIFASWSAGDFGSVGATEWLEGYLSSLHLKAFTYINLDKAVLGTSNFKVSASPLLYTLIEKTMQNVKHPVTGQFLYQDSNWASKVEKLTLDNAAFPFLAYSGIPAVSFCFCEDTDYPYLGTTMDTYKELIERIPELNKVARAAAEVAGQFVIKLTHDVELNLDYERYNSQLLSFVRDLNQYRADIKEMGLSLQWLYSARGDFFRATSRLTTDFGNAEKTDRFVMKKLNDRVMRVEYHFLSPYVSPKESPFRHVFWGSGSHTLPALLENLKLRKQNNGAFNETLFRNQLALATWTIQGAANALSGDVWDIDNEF

| Binder | koff [s⁻¹] |
| --- | --- |
| 2/99 VH2/VL4 (antibody, V domains shown) VH: EVQLVETGGGLIQPGGSLRLSCAASGFSLSSYAMSWVRQAPGKGLEWVGYIWSGGSTDYADSVKGRFTISRDNSKNTLYLQMNSLRAEDTAVYYCARRYGTSYPDYGDANGFDPWGQGTLVTVSS VL: AYQMTQSPSSLSASVGDRVTITCRASQSISSYLSWYQQKPGKAPKLLIYRASTLASGVPSRFSGSGSGTDFTLTISSLQPEDFATYYCQQSYSSSNVDNTFGGGTKVEIK | 0.00263 |
| 2/99 VH2/VL5 (antibody, V domains shown) VH: EVQLVETGGGLIQPGGSLRLSCAASGFSLSSYAMSWVRQAPGKGLEWVGYIWSGGSTDYADSVKGRFTISRDNSKNTLYLQMNSLRAEDTAVYYCARRYGTSYPDYGDANGFDPWGQGTLVTVSS VL: DIQMTQSPSSLSASVGDRVTITCRASQSISSYLSWYQQKPGKAPKLLIYRASTLASGVPSRFSGSGSGTDFTLTISSLQPEDFATYYCQQSYSSSNVDNTFGGGTKVEIK | 0.00262 |
| 2/99 VH1/VL5 (antibody, V domains shown) VH: VQLVETGGGLIQPGGSLRLSCAASGFSLSSYAMSWVRQAPGKGLEWVGYIWSGGSTDYADSVKGRFTISRDNSKNTLYLQMNSLRAEDTAVYYCARRYGTSYPDYGDANGFDPWGQGTLVTVSS VL: DIQMTQSPSSLSASVGDRVTITCRASQSISSYLSWYQQKPGKAPKLLIYRASTLASGVPSRFSGSGSGTDFTLTISSLQPEDFATYYCQQSYSSSNVDNTFGGGTKVEIK | 0.00271 |
| 2/99 VH5/VL4 (antibody, V domains shown) VH: QSMEETGGGLIQPGGSLRLSCAASGFSLSSYAMSWVRQAPGKGLEWVGYIWSGGSTDYADSVKGRFTISRDNSKNTLYLQMNSLRAEDTAVYYCARRYGTSYPDYGDANGFDPWGPGTLVTVSS VL: AYQMTQSPSSLSASVGDRVTITCRASQSISSYLSWYQQKPGKAPKLLIYRASTLASGVPSRFSGSGSGTDFTLTISSLQPEDFATYYCQQSYSSSNVDNTFGGGTKVEIK | 0.00238 |
| 2/99 VH12/VL4 (antibody, V domains shown) VH: QVQLQESGPGLVKPSETLSLTCTVSGFSLSSYAMSWIRQPPGKGLEWIGYIWSGGSTDYNPSLKSRVTISVDTSKNQFSLKLSSVTAADTAVYYCARRYGTSYPDYGDANGFDPWGQGTLVTVSS VL: AYQMTQSPSSLSASVGDRVTITCRASQSISSYLSWYQQKPGKAPKLLIYRASTLASGVPSRFSGSGSGTDFTLTISSLQPEDFATYYCQQSYSSSNVDNTFGGGTKVEIK | 0.00311 |
| 2/99 VH6/VL5 (antibody, V domains shown) VH: QQLVETGGGLIQPGGSLRLSCAASGFSLSSYAMSWVRQAPGKGLEWIGYIWSGGSTDYADSVKGRFTISRDNSKNTLYLQMNSLRAEDTAVYYCARRYGTSYPDYGDANGFDPWGQGTLVTVSS VL: DIQMTQSPSSLSASVGDRVTITCRASQSISSYLSWYQQKPGKAPKLLIYRASTLASGVPSRFSGSGSGTDFTLTISSLQPEDFATYYCQQSYSSSNVDNTFGGGTKVEIK | 0.00166 |
| 2/99 VH11/VL4 (antibody, V domains shown) VH: QQLLESGGGLVQPGGSLRLSCAASGFSLSSYAMSWVRQAPGKGLEWVGYIWSGGSTDYADSVKGRFTISRDNSKNTLYLQMNSLRAEDTAVYYCARRYGTSYPDYGDANGFDPWGQGTLVTVSS VL: AYQMTQSPSSLSASVGDRVTITCRASQSISSYLSWYQQKPGKAPKLLIYRASTLASGVPSRFSGSGSGTDFTLTISSLQPEDFATYYCQQSYSSSNVDNTFGGGTKVEIK | 0.00388 |
| 2/99 VH16/VL4 (antibody, V domains shown) VH: QQLQESGPGLVKPSETLSLTCTVSGFSLSSYAMSWVRQPPGKGLEWIGYIWSGGSTDYNPSLKSRVTISVDTSKNQVSLKLSSVTAADTAVYYCARRYGTSYPDYGDANGFDPWGPGTLVTVSS VL: AYQMTQSPSSLSASVGDRVTITCRASQSISSYLSWYQQKPGKAPKLLIYRASTLASGVPSRFSGSGSGTDFTLTISSLQPEDFATYYCQQSYSSSNVDNTFGGGTKVEIK | 0.00127 |
| 2/99 VH15/VL4 (antibody, V domains shown) VH: QQLQESGPGLVKPSETLSLTCTVSGFSLSSYAMSWVRQPPGKGLEWIGYIWSGGSTDYNPSLKSRVTISVDTSKNQVSLKLSSVTAADTAVYYCARRYGTSYPDYGDANGFDPWGQGTLVTVSS VL: AYQMTQSPSSLSASVGDRVTITCRASQSISSYLSWYQQKPGKAPKLLIYRASTLASGVPSRFSGSGSGTDFTLTISSLQPEDFATYYCQQSYSSSNVDNTFGGGTKVEIK | 0.00134 |
| 2/99 VH13/VL4 (antibody, V domains shown) VH: QVQLQESGPGLVKPSETLSLTCTVSGFSLSSYAMSWIRQPPGKGLEWIGYIWSGGSTDYNPSLKSRVTISVDTSKNQVSLKLSSVTAADTAVYYCARRYGTSYPDYGDANGFDPWGQGTLVTVSS VL: AYQMTQSPSSLSASVGDRVTITCRASQSISSYLSWYQQKPGKAPKLLIYRASTLASGVPSRFSGSGSGTDFTLTISSLQPEDFATYYCQQSYSSSNVDNTFGGGTKVEIK | 0.0013 |
| 2/99 VH5/VL5 (antibody, V domains shown) VH: QSMEETGGGLIQPGGSLRLSCAASGFSLSSYAMSWVRQAPGKGLEWVGYIWSGGSTDYADSVKGRFTISRDNSKNTLYLQMNSLRAEDTAVYYCARRYGTSYPDYGDANGFDPWGPGTLVTVSS VL: DIQMTQSPSSLSASVGDRVTITCRASQSISSYLSWYQQKPGKAPKLLIYRASTLASGVPSRFSGSGSGTDFTLTISSLQPEDFATYYCQQSYSSSNVDNTFGGGTKVEIK | 0.00253 |
| 2/99 VH9/VL4 (antibody, V domains shown) VH: QQLLESGGGLVQPGGSLRLSCAASGFTFSSYAMSWVRQAPGKGLEWVGYIWSGGSTDYADSVKGRFTISRDNSKNTLYLQMNSLRAEDTAVYYCAKRYGTSYPDYGDANGFDPWGQGTLVTVSS VL: AYQMTQSPSSLSASVGDRVTITCRASQSISSYLSWYQQKPGKAPKLLIYRASTLASGVPSRFSGSGSGTDFTLTISSLQPEDFATYYCQQSYSSSNVDNTFGGGTKVEIK | 0.0027 |
| 2/99 VH7/VL4 (antibody, V domains shown) VH: QQLVETGGGLIQPGGSLRLSCAASGFSLSSYAMSWVRQAPGKGLEWIGYIWSGGSTDYASWAKGRFTISRDNSKNTLYLQMNSLRAEDTAVYYCARRYGTSYPDYGDANGFDPWGQGTLVTVSS VL: AYQMTQSPSSLSASVGDRVTITCRASQSISSYLSWYQQKPGKAPKLLIYRASTLASGVPSRFSGSGSGTDFTLTISSLQPEDFATYYCQQSYSSSNVDNTFGGGTKVEIK | 0.00125 |
| 2/99 VH6/VL4 (antibody, V domains shown) VH: QQLVETGGGLIQPGGSLRLSCAASGFSLSSYAMSWVRQAPGKGLEWIGYIWSGGSTDYADSVKGRFTISRDNSKNTLYLQMNSLRAEDTAVYYCARRYGTSYPDYGDANGFDPWGQGTLVTVSS VL: AYQMTQSPSSLSASVGDRVTITCRASQSISSYLSWYQQKPGKAPKLLIYRASTLASGVPSRFSGSGSGTDFTLTISSLQPEDFATYYCQQSYSSSNVDNTFGGGTKVEIK | 0.00187 |
| 2/99 VH8/VL4 (antibody, V domains shown) VH: QQLVETGGGLIQPGGSLRLSCAASGFSLSSYAMSWVRQAPGKGLEWIGYIWSGGSTDYASWAKGRFTISKTSTTLYLQMNSLRAEDTAVYYCARRYGTSYPDYGDANGFDPWGQGTLVTVSS VL: AYQMTQSPSSLSASVGDRVTITCRASQSISSYLSWYQQKPGKAPKLLIYRASTLASGVPSRFSGSGSGTDFTLTISSLQPEDFATYYCQQSYSSSNVDNTFGGGTKVEIK | 0.000788 |

Results, then the binder that gave them:

| koff [s⁻¹] | Binder |
| --- | --- |
| 0.000761 | 2/99 VH23-DANG/VL4 (antibody, V domains shown) VH: QSMQESGPGLVKPSQTLSLTCTVSGFSLSSYAMSWIRQHPGKGLEWIGYIWSGGSTDYASWAKSRVTISKTSTTVSLKLSSVTAADTAVYYCARRYGTSYPDYGDANGFDPWGQGTLVTVSS VL: AYQMTQSPSSLSASVGDRVTITCRASQSISSYLSWYQQKPGKAPKLLIYRASTLASGVPSRFSGSGSGTDFTLTISSLQPEDFATYYCQQSYSSSNVDNTFGGGTKVEIK |
| 0.00146 | 2/99 VH21/VL4 (antibody, V domains shown) VH: QSMQESGPGLVKPSQTLSLTCTVSGFSLSSYAMSWIRQHPGKGLEWIGYIWSGGSTDYASWAKSRVTISVDTSKNQVSLKLSSVTAADTAVYYCARRYGTSYPDYGDANGFDPWGQGTLVTVSS VL: AYQMTQSPSSLSASVGDRVTITCRASQSISSYLSWYQQKPGKAPKLLIYRASTLASGVPSRFSGSGSGTDFTLTISSLQPEDFATYYCQQSYSSSNVDNTFGGGTKVEIK |
| 0.001 | 2/99 VH19/VL4 (antibody, V domains shown) VH: QSMQESGPGLVKPSQTLSLTCTVSGFSLSSYAMSWIRQHPGKGLEWIGYIWSGGSTDYAPSLKSRVTISVDTSKNQFSLKLSSVTAADTAVYYCARRYGTSYPDYGDANGFDPWGQGTLVTVSS VL: AYQMTQSPSSLSASVGDRVTITCRASQSISSYLSWYQQKPGKAPKLLIYRASTLASGVPSRFSGSGSGTDFTLTISSLQPEDFATYYCQQSYSSSNVDNTFGGGTKVEIK |
| 0.00335 | 2/99 VH18/VL4 (antibody, V domains shown) VH: QVQLQESGPGLVKPSQTLSLTCTVSGFSLSSYAMSWIRQHPGKGLEWIGYIWSGGSTDYAPSLKSRVTISVDTSKNQFSLKLSSVTAADTAVYYCARRYGTSYPDYGDANGFDPWGQGTLVTVSS VL: AYQMTQSPSSLSASVGDRVTITCRASQSISSYLSWYQQKPGKAPKLLIYRASTLASGVPSRFSGSGSGTDFTLTISSLQPEDFATYYCQQSYSSSNVDNTFGGGTKVEIK |
| 0.000723 | 2/99 VH17/VL4 (antibody, V domains shown) VH: QQLQESGPGLVKPSETLSLTCTVSGFSLSSYAMSWVRQPPGKGLEWIGYIWSGGSTDYNPSLKSRVTISKDTSKNQVSLKLSSVTAADTAVYYCARRYGTSYPDYGDANGFDPWGPGTLVTVSS VL: AYQMTQSPSSLSASVGDRVTITCRASQSISSYLSWYQQKPGKAPKLLIYRASTLASGVPSRFSGSGSGTDFTLTISSLQPEDFATYYCQQSYSSSNVDNTFGGGTKVEIK |
| 0.00118 | 2/99 VH22/VL4 (antibody, V domains shown) VH: QSMQESGPGLVKPSQTLSLTCTVSGFSLSSYAMSWVRQHPGKGLEWIGYIWSGGSTDYASWAKSRVTISVDTSKNQVSLKLSSVTAADTAVYYCARRYGTSYPDYGDANGFDPWGQGTLVTVSS VL: AYQMTQSPSSLSASVGDRVTITCRASQSISSYLSWYQQKPGKAPKLLIYRASTLASGVPSRFSGSGSGTDFTLTISSLQPEDFATYYCQQSYSSSNVDNTFGGGTKVEIK |
| 0.00436 | 2/99 VH20/VL4 (antibody, V domains shown) VH: QSMQESGPGLVKPSQTLSLTCTVSGFSLSSYAMSWIRQHPGKGLEWIGYIWSGGSTDYAPSLKSRVTISVDTSKNQVSLKLSSVTAADTAVYYCARRYGTSYPDYGDANGFDPWGQGTLVTVSS VL: AYQMTQSPSSLSASVGDRVTITCRASQSISSYLSWYQQKPGKAPKLLIYRASTLASGVPSRFSGSGSGTDFTLTISSLQPEDFATYYCQQSYSSSNVDNTFGGGTKVEIK |
